# B1: ZNF263 (parent)
# chain: FGGNPRFLSLHRAHLGEEAHKCLE
# Variants of: B1
# Assay: protein stability index of a GFP-peptide fusion (GPS, HEK-293T) (PSI 1-6); higher = more stable
# Conditions: c terminus: a fixed tail appended
# 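Note: lentivirally expressed fusions sorted by FACS into six bins by GFP to DsRed ratio, PSI derived from sequencing read proportions per bin multiplied by bin number.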
row,Variant,protein stability index
1,FGGNPTFLSLHRAHLGEEAHKCLE [R6T],2.89
2,FGGNPVFLSLHRAHLGEEAHKCLE [R6V],3.33
3,FGGNPWFLSLHRAHLGEEAHKCLE [R6W],5.27
4,FGGNPRALSLHRAHLGEEAHKCLE [F7A],2.79
5,FGGNPRCLSLHRAHLGEEAHKCLE [F7C],2.31
6,FGGNPRDLSLHRAHLGEEAHKCLE [F7D],3.51
7,FGGNPRELSLHRAHLGEEAHKCLE [F7E],4
8,FGGNPRGLSLHRAHLGEEAHKCLE [F7G],2.63
9,FGGNPRHLSLHRAHLGEEAHKCLE [F7H],2.56
10,FGGNPRILSLHRAHLGEEAHKCLE [F7I],2.19
11,FGGNPRKLSLHRAHLGEEAHKCLE [F7K],3.58
12,FGGNPRLLSLHRAHLGEEAHKCLE [F7L],2.56
13,FGGNPRMLSLHRAHLGEEAHKCLE [F7M],2.42
14,FGGNPRNLSLHRAHLGEEAHKCLE [F7N],3.42
15,FGGNPRPLSLHRAHLGEEAHKCLE [F7P],2.71
16,FGGNPRQLSLHRAHLGEEAHKCLE [F7Q],3.49
17,FGGNPRRLSLHRAHLGEEAHKCLE [F7R],3.15
18,FGGNPRSLSLHRAHLGEEAHKCLE [F7S],3.57
19,FGGNPRTLSLHRAHLGEEAHKCLE [F7T],3.22
20,FGGNPRVLSLHRAHLGEEAHKCLE [F7V],2.64
21,FGGNPRYLSLHRAHLGEEAHKCLE [F7Y],2.04
22,FGGNPRFASLHRAHLGEEAHKCLE [L8A],2.43
23,FGGNPRFCSLHRAHLGEEAHKCLE [L8C],1.4
24,FGGNPRFDSLHRAHLGEEAHKCLE [L8D],3.1

row,Variant,protein stability index
1,FGGNPRFESLHRAHLGEEAHKCLE [L8E],2.54
2,FGGNPRFFSLHRAHLGEEAHKCLE [L8F],2.16
3,FGGNPRFGSLHRAHLGEEAHKCLE [L8G],2.1
4,FGGNPRFHSLHRAHLGEEAHKCLE [L8H],1.86
5,FGGNPRFISLHRAHLGEEAHKCLE [L8I],1.41
6,FGGNPRFKSLHRAHLGEEAHKCLE [L8K],2.53
7,FGGNPRFMSLHRAHLGEEAHKCLE [L8M],2.25
8,FGGNPRFNSLHRAHLGEEAHKCLE [L8N],2.25
9,FGGNPRFPSLHRAHLGEEAHKCLE [L8P],2.01
10,FGGNPRFQSLHRAHLGEEAHKCLE [L8Q],1.66
11,FGGNPRFRSLHRAHLGEEAHKCLE [L8R],2.27
12,FGGNPRFSSLHRAHLGEEAHKCLE [L8S],2.03
13,FGGNPRFTSLHRAHLGEEAHKCLE [L8T],2.77
14,FGGNPRFVSLHRAHLGEEAHKCLE [L8V],2.5
15,FGGNPRFWSLHRAHLGEEAHKCLE [L8W],3.8
16,FGGNPRFYSLHRAHLGEEAHKCLE [L8Y],3.2
17,FGGNPRFLALHRAHLGEEAHKCLE [S9A],1.52
18,FGGNPRFLCLHRAHLGEEAHKCLE [S9C],2.16
19,FGGNPRFLDLHRAHLGEEAHKCLE [S9D],1.34
20,FGGNPRFLELHRAHLGEEAHKCLE [S9E],1.97
21,FGGNPRFLFLHRAHLGEEAHKCLE [S9F],2.14
22,FGGNPRFLHLHRAHLGEEAHKCLE [S9H],1.8
23,FGGNPRFLILHRAHLGEEAHKCLE [S9I],2.59
24,FGGNPRFLKLHRAHLGEEAHKCLE [S9K],1.64

row,Variant,protein stability index
1,FGGNPRFLLLHRAHLGEEAHKCLE [S9L],2.25
2,FGGNPRFLMLHRAHLGEEAHKCLE [S9M],1.15
3,FGGNPRFLNLHRAHLGEEAHKCLE [S9N],1.55
4,FGGNPRFLPLHRAHLGEEAHKCLE [S9P],2.1
5,FGGNPRFLQLHRAHLGEEAHKCLE [S9Q],2.9
6,FGGNPRFLRLHRAHLGEEAHKCLE [S9R],1.87
7,FGGNPRFLTLHRAHLGEEAHKCLE [S9T],1.8
8,FGGNPRFLVLHRAHLGEEAHKCLE [S9V],1.71
9,FGGNPRFLYLHRAHLGEEAHKCLE [S9Y],3.04
10,FGGNPRFLSAHRAHLGEEAHKCLE [L10A],1.74
11,FGGNPRFLSDHRAHLGEEAHKCLE [L10D],2.47
12,FGGNPRFLSEHRAHLGEEAHKCLE [L10E],2.64
13,FGGNPRFLSFHRAHLGEEAHKCLE [L10F],1.8
14,FGGNPRFLSGHRAHLGEEAHKCLE [L10G],1.34
15,FGGNPRFLSHHRAHLGEEAHKCLE [L10H],2.17
16,FGGNPRFLSIHRAHLGEEAHKCLE [L10I],2.06
17,FGGNPRFLSKHRAHLGEEAHKCLE [L10K],2.24
18,FGGNPRFLSMHRAHLGEEAHKCLE [L10M],2.02
19,FGGNPRFLSNHRAHLGEEAHKCLE [L10N],2.22
20,FGGNPRFLSPHRAHLGEEAHKCLE [L10P],2.01
21,FGGNPRFLSQHRAHLGEEAHKCLE [L10Q],2
22,FGGNPRFLSRHRAHLGEEAHKCLE [L10R],2.69
23,FGGNPRFLSSHRAHLGEEAHKCLE [L10S],1.62
24,FGGNPRFLSTHRAHLGEEAHKCLE [L10T],1.99

row,Variant,protein stability index
1,FGGNPRFLSVHRAHLGEEAHKCLE [L10V],2.66
2,FGGNPRFLSWHRAHLGEEAHKCLE [L10W],3.91
3,FGGNPRFLSYHRAHLGEEAHKCLE [L10Y],2.33
4,FGGNPRFLSLARAHLGEEAHKCLE [H11A],1.41
5,FGGNPRFLSLCRAHLGEEAHKCLE [H11C],2.23
6,FGGNPRFLSLDRAHLGEEAHKCLE [H11D],2.22
7,FGGNPRFLSLERAHLGEEAHKCLE [H11E],2.01
8,FGGNPRFLSLFRAHLGEEAHKCLE [H11F],2.41
9,FGGNPRFLSLGRAHLGEEAHKCLE [H11G],2.71
10,FGGNPRFLSLIRAHLGEEAHKCLE [H11I],1.87
11,FGGNPRFLSLKRAHLGEEAHKCLE [H11K],1.91
12,FGGNPRFLSLNRAHLGEEAHKCLE [H11N],1.8
13,FGGNPRFLSLPRAHLGEEAHKCLE [H11P],1.75
14,FGGNPRFLSLQRAHLGEEAHKCLE [H11Q],1.6
15,FGGNPRFLSLRRAHLGEEAHKCLE [H11R],1.91
16,FGGNPRFLSLSRAHLGEEAHKCLE [H11S],3.19
17,FGGNPRFLSLTRAHLGEEAHKCLE [H11T],3.17
18,FGGNPRFLSLVRAHLGEEAHKCLE [H11V],2.55
19,FGGNPRFLSLYRAHLGEEAHKCLE [H11Y],3.3
20,FGGNPRFLSLHAAHLGEEAHKCLE [R12A],2.08
21,FGGNPRFLSLHCAHLGEEAHKCLE [R12C],1.87
22,FGGNPRFLSLHDAHLGEEAHKCLE [R12D],1.85
